Consider 50 molecules from US20120283184A1 (published 2012).

In the assay the target is T1, human vascular endothelial growth factor receptor-2 Fc chimera (KDR-Fc) (human, UniProt P35968 20-764).
T1 construct: range 1-764; also called human VEGFR-2; not shown: human IgG1 Fc
The assay is described as follows: radioactive equilibrium binding, 1 nM KDR-Fc, % of input. The method, then:
To prepare ³⁵S-labeled binding proteins for analysis, mRNA was prepared as described above for RNA-protein fusion production but the linker ligation step was omitted. The mRNA was expressed using rabbit reticulocyte lysate translation kit (Ambion) in the presence of ³⁵S-labeled Met at 30° C. for 1 hour. Expressed protein was purified on M2-agarose Flag beads (Sigma) as described above. This procedure produced the encoded protein without the nucleic acid tail. In a direct binding assay, VEGF-R2-Fc fusions in concentrations ranging from 0 to 200 nM were added to a constant concentration of the purified protein (0.2 or 0.5 nM) and incubated at 30° C. for 1 hour in buffer B. The receptor-binder complexes were captured using Protein A magnetic beads for another 10 minutes at room temperature using a Kingfisher™ The beads were washed with six reaction volumes of buffer B. The protein was eluted from the beads with 100 μL of 0.1 M KOH. 50 μL of the reaction mixture and elution were dried onto a LumaPlate-96 (Packard) and the amount of ³⁵S on the plate was measured using a TopCount NXT instrument (Packard). The amount of fibronectin-based scaffold protein bound to the target was estimated as a percent of radioactivity eluted from Protein A magnetic beads compare to radioactivity in the reaction mixture. Nonspecific binding of fibronectin-based scaffold proteins to the beads was determined by measuring binding in the absence of KDR-Fc and represented less than 1-2% of the input. Specific binding was obtained through subtraction of nonspecific binding from total binding. Data was analyzed using the GraphPad Prizm software (GraphPad Software, Inc, San Diego, Calif.), fitted using a one site, non-linear binding equation.

Positions count from the first letter of the chain named.

T1 sequence (P35968 20-764 limits assumed, change not shown, form in doubt): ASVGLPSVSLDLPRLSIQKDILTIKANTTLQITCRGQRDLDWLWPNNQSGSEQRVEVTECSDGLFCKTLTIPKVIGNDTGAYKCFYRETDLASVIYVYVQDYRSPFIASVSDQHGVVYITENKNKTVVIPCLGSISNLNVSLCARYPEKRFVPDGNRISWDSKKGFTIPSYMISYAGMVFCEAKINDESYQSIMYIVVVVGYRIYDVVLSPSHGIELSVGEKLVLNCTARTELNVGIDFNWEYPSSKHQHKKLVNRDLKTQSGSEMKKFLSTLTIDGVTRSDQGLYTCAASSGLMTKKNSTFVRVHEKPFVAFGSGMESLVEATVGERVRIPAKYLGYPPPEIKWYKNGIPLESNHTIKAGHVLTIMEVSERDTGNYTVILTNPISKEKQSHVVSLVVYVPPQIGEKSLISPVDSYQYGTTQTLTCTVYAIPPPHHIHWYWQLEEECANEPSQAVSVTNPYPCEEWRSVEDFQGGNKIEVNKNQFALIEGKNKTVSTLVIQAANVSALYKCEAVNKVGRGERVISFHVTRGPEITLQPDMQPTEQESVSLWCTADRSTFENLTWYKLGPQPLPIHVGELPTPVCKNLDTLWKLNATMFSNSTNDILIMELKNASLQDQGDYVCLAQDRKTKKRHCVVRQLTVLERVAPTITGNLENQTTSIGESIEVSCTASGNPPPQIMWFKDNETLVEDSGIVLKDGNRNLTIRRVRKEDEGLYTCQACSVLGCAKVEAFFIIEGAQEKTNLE

B1: 3C9 PR3 (designed binder)
chain: EVVAATPTSLLISWRHPHFPTRYYRITYGETGGNSPVQEFTVPLQPPTATISGLKPGVDYTITVYAVTLVRNDHELLTPISINYRT
On to B1, for which the “Binding to 1 nM KDR, %” value is 16%.

B2: 3′G7 PR4 (designed binder)
chain: B1 chain with L69E, V70G, R71Q, H74Q, E75L, L77F, T78I
Take B2: the “Binding to 1 nM KDR, %” value was found to be 19%.

B3: 3′B1 PR4 (designed binder)
chain: B1 chain with L69E, V70A, D73G, H74R
For the molecule B3, the “Binding to 1 nM KDR, %” value was 25%.

B4: 3′G10 PR4 (designed binder)
chain: B1 chain with V70T, R71H
Consider B4, for which the “Binding to 1 nM KDR, %” value is 30%.

B5: 3G2 PR3 (designed binder)
chain: B1 chain with L69F, V70G, R71P, N72S, E75V
Turning to B5, the “Binding to 1 nM KDR, %” value was determined as 20%.

B6: 3′D3 PR4 (designed binder)
chain: B1 chain with L69P, V70G, R71P, N72G, H74R, L77I
On to B6, for which the “Binding to 1 nM KDR, %” value turned out to be 42%.

B7: 3′A6 PR4 (designed binder)
chain: B1 chain with V70A, R71Q, D73G
Consider B7, for which the “Binding to 1 nM KDR, %” value is 19%.

B8: 3′E9 PR4 (designed binder)
chain: B1 chain with L69V, V70E, R71Q, N72D, D73G, E75V, L77Y, T78I
Regarding B8, the “Binding to 1 nM KDR, %” value was determined as 44%.

B9: 4F4 PR3 (designed binder)
chain: B1 chain with V70A, R71Q, H74R, L77I
For the molecule B9, the “Binding to 1 nM KDR, %” value turned out to be 15%.

B10: 3′F9 PR4 (designed binder)
chain: B1 chain with V70G, R71P, H74R, L77M
On to B10, for which the “Binding to 1 nM KDR, %” value was found to be 18%.

B11: 3′C3 PR4 (designed binder)
chain: B1 chain with L69M, V70A, R71Q, D73G, E75A, L77F
Regarding B11, the “Binding to 1 nM KDR, %” value worked out at 32%.

B12: 3′H3 PR4 (designed binder)
chain: B1 chain with V70G, R71L, H74R, L77M
Regarding B12, the “Binding to 1 nM KDR, %” value came to 36%.

B13: 3′B8 PR4 (designed binder)
chain: B1 chain with V70G, R71Y, N72H, E75A, L77F
On to B13, for which the “Binding to 1 nM KDR, %” value was found to be 14%.

B14: 3′D8 PR4 (designed binder)
chain: B1 chain with L69A, V70G, R71P, E75Q, L77F
Consider B14, for which the “Binding to 1 nM KDR, %” value came to 27%.

B15: 3′B10 PR4 (designed binder)
chain: B1 chain with V70A, R71Q, N72T, D73G, H74R
Regarding B15, the “Binding to 1 nM KDR, %” value was 21%.

B16: 3′C12 PR4 (designed binder)
chain: B1 chain with L69I, V70G, R71P, D73N
In the case of B16, the “Binding to 1 nM KDR, %” value was 33%.

B17: 3F10 PR3 (designed binder)
chain: B1 chain with V70A, R71Q, N72D
Take B17: the “Binding to 1 nM KDR, %” value was found to be 16%.

B18: 3′G3 PR4 (designed binder)
chain: B1 chain with L69F, V70D, R71Q, N72S
Consider B18, for which the “Binding to 1 nM KDR, %” value worked out at 31%.

B19: 3′E11 PR4 (designed binder)
chain: B1 chain with L69V, V70G, R71P, N72H, H74R
B19: the “Binding to 1 nM KDR, %” value is 17%.

B20: 3′D9 PR4 (designed binder)
chain: B1 chain with L69G, V70Y, R71Y, H74R
On to B20, for which the “Binding to 1 nM KDR, %” value came out at 30%.

B21: 3′B4 PR4 (designed binder)
chain: B1 chain with L69V, V70A, R71W, D73G, L77M
Consider B21, for which the “Binding to 1 nM KDR, %” value came to 38%.

B22: 3′C8 PR4 (designed binder)
chain: B1 chain with L69E, V70G, R71L, L77M, T78I
Turning to B22, the “Binding to 1 nM KDR, %” value was 19%.

B23: 3′C5 PR4 (designed binder)
chain: B1 chain with L69D, V70A, R71M, N72Y, D73G, H74R, L77M
Regarding B23, the “Binding to 1 nM KDR, %” value is 27%.

B24: 3′A9 PR4 (designed binder)
chain: B1 chain with V70A, R71H, H74R
With B24, the “Binding to 1 nM KDR, %” value is 25%.

B25: 3′A8 PR4 (designed binder)
chain: B1 chain with L69V, V70A, R71W, N72D
Regarding B25, the “Binding to 1 nM KDR, %” value was found to be 27%.

B26: 3′F6 PR4 (designed binder)
chain: B1 chain with L69I, V70E, R71Q, N72S, D73G, H74L, E75Q, L77M
As to B26, the “Binding to 1 nM KDR, %” value is 24%.

B27: 3′B11 PR4 (designed binder)
chain: B1 chain with L69E, V70T, R71W, L76I, L77R
B27: the “Binding to 1 nM KDR, %” value amounted to 23%.

B28: 3′G2 PR4 (designed binder)
chain: B1 chain with V70A, R71Q, D73G, L77I
On to B28, for which the “Binding to 1 nM KDR, %” value was 15%.

B29: 3F8 PR3 (designed binder)
chain: B1 chain with L69V, V70A, R71Q, D73G, L77K
B29: the “Binding to 1 nM KDR, %” value amounted to 17%.

B30: 3′E10 PR4 (designed binder)
chain: B1 chain with L69A, V70G, R71H, N72K, H74Q
As to B30, the “Binding to 1 nM KDR, %” value turned out to be 21%.

B31: 3′F3 PR4 (designed binder)
chain: B1 chain with V70G, R71H, H74R
With B31, the “Binding to 1 nM KDR, %” value came to 37%.

B32: 3′F1 PR4 (designed binder)
chain: B1 chain with L69V, V70A, R71Q, N72D, D73G, E75F, L77Y
Take B32: the “Binding to 1 nM KDR, %” value was 31%.

B33: 3′H1 PR4 (designed binder)
chain: B1 chain with L69F, V70A, R71Q, E75Q, L77F
For the molecule B33, the “Binding to 1 nM KDR, %” value was 22%.

B34: 3′E5 PR4 (designed binder)
chain: B1 chain with L69V, V70A, R71W, N72D, D73G, H74R, L77F
As to B34, the “Binding to 1 nM KDR, %” value amounted to 23%.

B35: 4C9 PR3 (designed binder)
chain: B1 chain with V70A, R71Q
Take B35: the “Binding to 1 nM KDR, %” value is 16%.

B36: 3′H10 PR4 (designed binder)
chain: B1 chain with L69W, V70A, R71W, L77M
In the case of B36, the “Binding to 1 nM KDR, %” value came out at 14%.

B37: 4B11 PR3 (designed binder)
chain: B1 chain with L69V, V70G, R71Q, D73N, L77I
For B37, the “Binding to 1 nM KDR, %” value was found to be 15%.

B38: 3′A7 PR4 (designed binder)
chain: B1 chain with V70S, R71D, N72S, D73G, E75A, L77F
In the case of B38, the “Binding to 1 nM KDR, %” value stood at 34%.

B39: 3′D2 PR4 (designed binder)
chain: B1 chain with L69V, V70E, R71S, D73G, E75A, L77F, T78V
Take B39: the “Binding to 1 nM KDR, %” value was 19%.

B40: 3′B2 PR4 (designed binder)
chain: B1 chain with L69V, V70G, H74R
For the molecule B40, the “Binding to 1 nM KDR, %” value amounted to 29%.

B41: 3D12 PR3 (designed binder)
chain: B1 chain with V70G, R71Q, H74R, E75Q, T78V
Take B41: the “Binding to 1 nM KDR, %” value stood at 24%.

B42: 3′F12 PR4 (designed binder)
chain: B1 chain with V70S, R71Q, N72T
Regarding B42, the “Binding to 1 nM KDR, %” value stood at 17%.

B43: 3′E3 PR4 (designed binder)
chain: B1 chain with L69M, V70A, R71Q, N72Y, D73G, H74R
Take B43: the “Binding to 1 nM KDR, %” value was determined as 41%.

B44: 3′H11 PR4 (designed binder)
chain: B1 chain with V70A, R71H, D73G, H74N
As to B44, the “Binding to 1 nM KDR, %” value came out at 39%.

B45: 3′E1 PR4 (designed binder)
chain: B1 chain with L69V, V70A, R71P, D73G, L77F
On to B45, for which the “Binding to 1 nM KDR, %” value amounted to 32%.

B46: 3′H9 PR4 (designed binder)
chain: B1 chain with L69H, V70G, R71P, N72Y, H74Q, E75V
As for B46, the “Binding to 1 nM KDR, %” value was determined as 24%.

B47: 3′B12 PR4 (designed binder)
chain: B1 chain with L69V, V70A, R71H, N72E, D73N, H74R
On to B47, for which the “Binding to 1 nM KDR, %” value is 28%.

B48: 3′H8 PR4 (designed binder)
chain: B1 chain with L69V, V70G, R71H, H74R, L77I
As to B48, the “Binding to 1 nM KDR, %” value was 20%.

B49: 3′G1 PR4 (designed binder)
chain: B1 chain with V70A, R71L, D73G, L77F
For the molecule B49, the “Binding to 1 nM KDR, %” value was determined as 19%.

B50: 3′F2 PR4 (designed binder)
chain: B1 chain with V70G, R71K
As to B50, the “Binding to 1 nM KDR, %” value stood at 29%.
